According to patent US20200024330A1:

Experiments:
[1] = molecular target: HIV-1 92BR020 envelope glycoprotein (Env) (HIV-1); test: cell-based or functional assay
[2] = molecular target: HIV-1 92RW020 envelope glycoprotein (Env) (HIV-1); test: cell-based or functional assay
[3] = molecular target: HIV-1 93IN905 envelope glycoprotein (Env) (HIV-1); test: cell-based or functional assay
[4] = molecular target: HIV-1 93UG077 envelope glycoprotein (Env) (HIV-1); test: cell-based or functional assay
[5] = molecular target: HIV-1 94UG103 envelope glycoprotein (Env) (HIV-1); test: cell-based or functional assay
[6] = molecular target: HIV-1 APV13 envelope glycoprotein (Env) (HIV-1); test: cell-based or functional assay
[7] = molecular target: HIV-1 APV17 envelope glycoprotein (Env) (HIV-1); test: cell-based or functional assay
[8] = molecular target: HIV-1 APV6 envelope glycoprotein (Env) (HIV-1); test: cell-based or functional assay
[9] = molecular target: HIV-1 Env of isolate 92BR020 (HIV-1); test: cell-based or functional assay
[10] = molecular target: HIV-1 Env of isolate 92UG031 (HIV-1); test: cell-based or functional assay
[11] = molecular target: HIV-1 Env of isolate 92UG037 (HIV-1); test: cell-based or functional assay
[12] = molecular target: HIV-1 Env of isolate 92WR009 (HIV-1); test: cell-based or functional assay
[13] = molecular target: HIV-1 Env of isolate 92WR021 (HIV-1); test: cell-based or functional assay
[14] = molecular target: HIV-1 Env of isolate 92WR024 (HIV-1); test: cell-based or functional assay
[15] = molecular target: HIV-1 Env of isolate 92WR026 (HIV-1); test: cell-based or functional assay
[16] = molecular target: HIV-1 Env of isolate 93WR029 (HIV-1); test: cell-based or functional assay
[17] = molecular target: HIV-1 Env of isolate 94KE105 (HIV-1); test: cell-based or functional assay
[18] = molecular target: HIV-1 Env of isolate 94UG103 (HIV-1); test: cell-based or functional assay
[19] = molecular target: HIV-1 Env of isolate MGRM-A-001 (HIV-1); test: cell-based or functional assay
[20] = molecular target: HIV-1 Env of isolate MGRM-A-002 (HIV-1); test: cell-based or functional assay
[21] = molecular target: HIV-1 Env of isolate MGRM-A-003 (HIV-1); test: cell-based or functional assay
[22] = molecular target: HIV-1 Env of isolate MGRM-A-005 (HIV-1); test: cell-based or functional assay
[23] = molecular target: HIV-1 Env of isolate MGRM-A-007 (HIV-1); test: cell-based or functional assay
[24] = molecular target: HIV-1 Env of isolate MGRM-A-009 (HIV-1); test: cell-based or functional assay
[25] = molecular target: HIV-1 Env of isolate MGRM-A-010 (HIV-1); test: cell-based or functional assay
[26] = molecular target: HIV-1 Env of isolate MGRM-A-011 (HIV-1); test: cell-based or functional assay
[27] = molecular target: HIV-1 Env of isolate MGRM-A-012 (HIV-1); test: cell-based or functional assay
[28] = molecular target: HIV-1 Env of isolate MGRM-A-013 (HIV-1); test: cell-based or functional assay
[29] = molecular target: HIV-1 Env of isolate MGRM-A-014 (HIV-1); test: cell-based or functional assay
[30] = molecular target: HIV-1 Env of isolate MGRM-AE-001 (HIV-1); test: cell-based or functional assay
[31] = molecular target: HIV-1 Env of isolate MGRM-AE-002 (HIV-1); test: cell-based or functional assay
[32] = molecular target: HIV-1 Env of isolate MGRM-AE-003 (HIV-1); test: cell-based or functional assay
[33] = molecular target: HIV-1 Env of isolate VLGCA1 (HIV-1); test: cell-based or functional assay
[34] = molecular target: HIV-1 JR-CSF Env G324A (HIV-1 isolate JR-CSF) (UniProt P20871); test: cell-based or functional assay
[35] = molecular target: HIV-1 MGRM-C-026 envelope glycoprotein (Env) (HIV-1); test: cell-based or functional assay
[36] = molecular target: HIV-1 MGRM-C-027 envelope glycoprotein (Env) (HIV-1); test: cell-based or functional assay
[37] = molecular target: HIV-1 MGRM-C-028 envelope glycoprotein (Env) (HIV-1); test: cell-based or functional assay
[38] = molecular target: HIV-1 Env of isolate 93IN905 (HIV-1); test: cell-based or functional assay
[39] = molecular target: JR-FL gp120 ΔV3 (HIV-1 (isolate JR-FL)); test: ELISA on coated gp120; EC50 by nonlinear regression

B1: PGT-123 (antibody, V domains shown)
VH: QLHLQESGPGLVKPPETLSLTCSVSGASINDAYWSWIRQSPGKRPEWVGYVHHSGDTNYNPSLKRRVTFSLDTAKNEVSLKLVDLTAADSATYFCARALHGKRIYGIVALGELFTYFYMDVWGKGTAVTVSS
VL: SSMSVSPGETAKISCGKESIGSRAVQWYQQKPGQPPSLIIYNNQDRPAGVPERFSASPDFRPGTTATLTITNVDAEDEADYYCHIYDARGGTNWVFDRGTTLTVL
IC50 neutralization [1]: 0.013 µg/mL
IC50 neutralization [2]: 0.0038 µg/mL
IC50 neutralization [3]: 0.0071 µg/mL
IC50 neutralization [4]: 0.0303 µg/mL
IC50 neutralization [5]: 0.846 µg/mL
IC50 neutralization [6]: 0.222 µg/mL
IC50 neutralization [7]: 0.18 µg/mL
IC50 neutralization [8]: 0.0328 µg/mL
Primary Neutralization Index (B cell culture well 4858 P8) [9]: 2.8
IC50 (µg/mL), pseudovirus neutralization [10]: > 50 µg/mL
IC50 (µg/mL), pseudovirus neutralization [11]: 0.023 µg/mL
IC50 (µg/mL), pseudovirus neutralization [12]: 15.7 µg/mL
IC50 (µg/mL), pseudovirus neutralization [13]: 0.005 µg/mL
IC50 (µg/mL), pseudovirus neutralization [14]: > 50 µg/mL
IC50 (µg/mL), pseudovirus neutralization [15]: 0.012 µg/mL
IC50 (µg/mL), pseudovirus neutralization [16]: > 50 µg/mL
IC50 (µg/mL), pseudovirus neutralization [17]: 0.024 µg/mL
IC50 (µg/mL), pseudovirus neutralization [18]: 0.678 µg/mL
Primary Neutralization Index (B cell culture well 4858 P8) [18]: 1.1
IC50 (µg/mL), pseudovirus neutralization [19]: > 50 µg/mL
IC50 (µg/mL), pseudovirus neutralization [20]: 0.011 µg/mL
IC50 (µg/mL), pseudovirus neutralization [21]: 0.495 µg/mL
IC50 (µg/mL), pseudovirus neutralization [22]: > 50 µg/mL
IC50 (µg/mL), pseudovirus neutralization [23]: > 50 µg/mL
IC50 (µg/mL), pseudovirus neutralization [24]: 0.004 µg/mL
IC50 (µg/mL), pseudovirus neutralization [25]: 0.705 µg/mL
IC50 (µg/mL), pseudovirus neutralization [26]: > 50 µg/mL
IC50 (µg/mL), pseudovirus neutralization [27]: 0.192 µg/mL
IC50 (µg/mL), pseudovirus neutralization [28]: 0.565 µg/mL
IC50 (µg/mL), pseudovirus neutralization [29]: 0.003 µg/mL
IC50 (µg/mL), pseudovirus neutralization [30]: > 50 µg/mL
IC50 (µg/mL), pseudovirus neutralization [31]: > 50 µg/mL
IC50 (µg/mL), pseudovirus neutralization [32]: > 50 µg/mL
IC50 (µg/mL), pseudovirus neutralization [33]: > 50 µg/mL
Fold IC50 increase relative to wild-type [34]: 14.5 fold
IC50 neutralization [35]: 0.0031 µg/mL
IC50 neutralization [36]: 0.0169 µg/mL
IC50 neutralization [37]: 0.443 µg/mL

B2: PGT-135 (antibody, V domains shown)
VH: QLQMQESGPGLVKPSETLSLSCTVSGDSIRGGEWGDKDYHWGWVRHSAGKGLEWIGSIHWRGTTHYKESLRRRVSMSIDTSRNWFSLRLASVTAADTAVYFCARHRHHDVFMLVPIAGWFDVWGPGVQVTVSS
VL: EIVMTQSPDTLSVSPGETVTLSCRASQNINKNLAWYQYKPGQSPRLVIFETYSKIAAFPARFVASGSGTEFTLTINNMQSEDVAVYYCQQYEEWPRTFGQGTKVDIK
IC50 neutralization [1]: 0.104 µg/mL
IC50 neutralization [2]: 0.157 µg/mL
IC50 neutralization [3]: 0.0183 µg/mL
IC50 neutralization [4]: > 10 µg/mL
IC50 neutralization [5]: > 10 µg/mL
IC50 neutralization [6]: 0.545 µg/mL
IC50 neutralization [7]: > 10 µg/mL
IC50 neutralization [8]: > 10 µg/mL
Primary Neutralization Index (B cell culture well 5343 B8) [38]: 43
Primary Neutralization Index (B cell culture well 5344 E16) [38]: 2.3
Fold IC50 increase relative to wild-type [34]: 0.4 fold
IC50 neutralization [35]: 0.0123 µg/mL
IC50 neutralization [36]: > 10 µg/mL
IC50 neutralization [37]: 2.16 µg/mL
EC50 [39]: 0.2 µg/mL
